Measured values published in patent publication US20120117670A1 (U3 PHARMA, published 2012).

T1: Human AXL-Fc (R&D Systems, #154-AL) (human, UniProt P30530 26-451)
T1 construct: Bought reagent; also called human AXL-Fc fusion protein; human AXL-Fc protein; not shown: Fc part of the bought fusion protein
T1 sequence: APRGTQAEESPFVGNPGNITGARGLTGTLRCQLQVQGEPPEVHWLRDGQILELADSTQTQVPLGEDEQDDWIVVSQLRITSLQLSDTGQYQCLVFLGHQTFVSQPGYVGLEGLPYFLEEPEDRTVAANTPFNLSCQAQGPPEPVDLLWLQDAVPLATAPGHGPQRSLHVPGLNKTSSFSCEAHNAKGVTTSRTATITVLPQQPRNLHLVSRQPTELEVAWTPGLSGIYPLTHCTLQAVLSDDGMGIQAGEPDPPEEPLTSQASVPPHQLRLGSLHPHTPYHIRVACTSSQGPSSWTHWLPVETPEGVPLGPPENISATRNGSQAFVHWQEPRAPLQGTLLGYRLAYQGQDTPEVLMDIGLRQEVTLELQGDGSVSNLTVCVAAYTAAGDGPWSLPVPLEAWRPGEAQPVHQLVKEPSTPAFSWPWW


biological target: T1, Human AXL-Fc (R&D Systems, #154-AL); assay: ELISA on plate-adsorbed human AXL-Fc (1 ug/ml), 5-fold antibody dilution series, AP-conjugated goat anti-human IgG, fluorescent substrate (Example 13)

| Binder | EC50 (read off the curve) [µg/mL] |
| --- | --- |
| h#11B7-T4 (antibody, human IgG1, kappa, Humanized IgG1/kappa) heavy: not shown light: DIQMTQSPSSLSASVGDRVTITCRASQDIGNYLRWYQQKPGKAPKLLISGATNLAAGVPSRFSGSGSGSDFTLTISSLQPEDFATYYCLQSKESPWTFGQGTKLEIKRTVAAPSVFIFPPSDEQLKSGTASVVCLLNNFYPREAKVQWKVDNALQSGNSQESVTEQDSKDSTYSLSSTLTLSKADYEKHKVYACEVTHQGLSSPVTKSFNRGEC | ~0.06 |
| h#11B7-T5 (antibody, human IgG1, kappa, Humanized IgG1/kappa) heavy: not shown light: DIQMTQSPSSLSASVGDRVTITCRASQDIGNYLRWFQQKPGKAPKLMISGATNLAAGVPSRFSGSGSGSDYTLTISSLQPEDFATYYCLQSKESPWTFGQGTKLEIKRTVAAPSVFIFPPSDEQLKSGTASVVCLLNNFYPREAKVQWKVDNALQSGNSQESVTEQDSKDSTYSLSSTLTLSKADYEKHKVYACEVTHQGLSSPVTKSFNRGEC | ~0.02 |
| h#11B7-T3 (antibody, human IgG1, kappa, V domains shown, Humanized IgG1/kappa) VH: QVQLQESGPGLVKPSQTLSLTCAVSGYSITSNYWGWIRKPPGDGLEWMGYITYSGSTSYNPSLKSRISITRDTSKNQFSLKLSSVTAADTAVYYCAITTFYYWGQGTLVTVSS VL: DIQMTQSPSSLSASVGDRVTITCRASQDIGNYLRWFQQKPGKAPKLMISGATNLAAGVPSRFSGSRSGSDYTLTISSLQPEDFATYYCLQSKESPWTFGGGTKVEIKR | ~0.02 |

biological target: T1, Human AXL-Fc (R&D Systems, #154-AL); assay: as above; remark: another data set of the same source

| Binder | EC50 (read off the curve) [µg/mL] |
| --- | --- |
| h#11B7-T20 (antibody, human IgG1, kappa, V domains shown, Humanized IgG1/kappa) VH: QVQLQESGPGLVKPSETLSLTCTVSGYSITSNYWGWIRQPPGKGLEWMGYITYSGSTSYNPSLKSRITISRDTSKNQFSLKLSSVTAADTAVYYCAITTFYYWGQGTLVTVSS VL: DIQMTQSPSSLSASVGDRVTITCRASQDIGNYLRWYQQKPGKAPKLLISGATNLAAGVPSRFSGSGSGSDFTLTISSLQPEDFATYYCLQSKESPWTFGQGTKVEIKR | ~0.02 |
| h#11B7-T19 (antibody, human IgG1, kappa, V domains shown, Humanized IgG1/kappa) VH: QVQLQESGPGLVKPSETLSLTCTVSGYSITSNYWGWIRQPPGKGLEWMGYITYSGSTSYNPSLKSRITISRDTSKNQFSLKLSSVTAADTAVYYCAITTFYYWGQGTLVTVSS VL: DIQMTQSPSSLSASVGDRVTITCRASQDIGNYLRWYQQKPGKAPKLMISGATNLAAGVPSRFSGSGSGSDFTLTISSLQPEDFATYYCLQSKESPWTFGQGTKVEIKR | ~0.02 |

biological target: T1, Human AXL-Fc (R&D Systems, #154-AL); assay: as above; remark: another data set of the same source

| Binder | EC50 (read off the curve) [µg/mL] |
| --- | --- |
| h#11B7-T25 (antibody, human IgG1, kappa, Humanized IgG1/kappa) heavy: not shown light: DIQMTQSPSSLSASVGDRVTITCRASQDIGNYLRWFQQKPGKAPKLLISGATNLAAGVPSRFSGSGSGSDFTLTISSLQPEDFATYYCLQSKESPWTFGQGTKVEIKRTVAAPSVFIFPPSDEQLKSGTASVVCLLNNFYPREAKVQWKVDNALQSGNSQESVTEQDSKDSTYSLSSTLTLSKADYEKHKVYACEVTHQGLSSPVTKSFNRGEC | ~0.01 |
| h#11B7-T23 (antibody, human IgG1, kappa, V domains shown, Humanized IgG1/kappa) VH: QVQLQESGPGLVKPSETLSLTCTVSGYSITSNYWGWIRQPPGKGLEWIGYITYSGSTSYNPSLKSRVTISRDTSKNQFSLKLSSVTAADTAVYYCAITTFYYWGQGTLVTVSS VL: DIQMTQSPSSLSASVGDRVTITCRASQDIGNYLRWFQQKPGKAPKLMISGATNLAAGVPSRFSGSGSGSDFTLTISSLQPEDFATYYCLQSKESPWTFGQGTKVEIKR | ~0.01 |
| h#11B7-T22 (antibody, human IgG1, kappa, Humanized IgG1/kappa) heavy: not shown light: DIQMTQSPSSLSASVGDRVTITCRASQDIGNYLRWFQQKPGKAPKLLISGATNLAAGVPSRFSGSGSGSDYTLTISSLQPEDFATYYCLQSKESPWTFGQGTKVEIKRTVAAPSVFIFPPSDEQLKSGTASVVCLLNNFYPREAKVQWKVDNALQSGNSQESVTEQDSKDSTYSLSSTLTLSKADYEKHKVYACEVTHQGLSSPVTKSFNRGEC | ~0.02 |
| h#11B7-T26 (antibody, human IgG1, kappa, V domains shown, Humanized IgG1/kappa) VH: QVQLQESGPGLVKPSETLSLTCTVSGYSITSNYWGWIRQPPGKGLEWIGYITYSGSTSYNPSLKSRVTISRDTSKNQFSLKLSSVTAADTAVYYCAITTFYYWGQGTLVTVSS VL: DIQMTQSPSSLSASVGDRVTITCRASQDIGNYLRWYQQKPGKAPKLMISGATNLAAGVPSRFSGSGSGSDFTLTISSLQPEDFATYYCLQSKESPWTFGQGTKVEIKR | ~0.03 |
| h#11B7-T21 (antibody, human IgG1, kappa, V domains shown, Humanized IgG1/kappa) VH: QVQLQESGPGLVKPSETLSLTCTVSGYSITSNYWGWIRQPPGKGLEWIGYITYSGSTSYNPSLKSRVTISRDTSKNQFSLKLSSVTAADTAVYYCAITTFYYWGQGTLVTVSS VL: DIQMTQSPSSLSASVGDRVTITCRASQDIGNYLRWYQQKPGKAPKLMISGATNLAAGVPSRFSGSGSGSDYTLTISSLQPEDFATYYCLQSKESPWTFGQGTKVEIKR | ~0.02 |
| h#11B7-T27 (antibody, human IgG1, kappa, Humanized IgG1/kappa) heavy: not shown light: DIQMTQSPSSLSASVGDRVTITCRASQDIGNYLRWYQQKPGKAPKLLISGATNLAAGVPSRFSGSGSGSDFTLTISSLQPEDFATYYCLQSKESPWTFGQGTKVEIKRTVAAPSVFIFPPSDEQLKSGTASVVCLLNNFYPREAKVQWKVDNALQSGNSQESVTEQDSKDSTYSLSSTLTLSKADYEKHKVYACEVTHQGLSSPVTKSFNRGEC | ~0.02 |
| h#11B7-T24 (antibody, human IgG1, kappa, V domains shown, Humanized IgG1/kappa) VH: QVQLQESGPGLVKPSETLSLTCTVSGYSITSNYWGWIRQPPGKGLEWIGYITYSGSTSYNPSLKSRVTISRDTSKNQFSLKLSSVTAADTAVYYCAITTFYYWGQGTLVTVSS VL: DIQMTQSPSSLSASVGDRVTITCRASQDIGNYLRWYQQKPGKAPKLLISGATNLAAGVPSRFSGSGSGSDYTLTISSLQPEDFATYYCLQSKESPWTFGQGTKVEIKR | ~0.02 |

biological target: T1, Human AXL-Fc (R&D Systems, #154-AL); assay: ELISA on plate-adsorbed human AXL-Fc (1 ug/ml), 5-fold antibody dilution series, AP-conjugated goat anti-human IgG, fluorescent substrate (Example 14)

| Binder | EC50 (read off the curve) [µg/mL] |
| --- | --- |
| h#11D5-T1 (antibody, human IgG1, kappa, V domains shown, Humanized antibody of rat #11D5 made from pEF6KCL/h#11D5-T1L and pEF1/FCCU/h#11D5-T1H; also called T1 (humanized #11D5)) VH: QVQLQESGPGLVKPSQTLSLTCTVSGYSITSNYWGWIRQPPGMGLEWIGHITNSGNTTYNPSLKSRVTISVDTSENQFSLKLSSVTPADTAVYYCAKGAFDYWGQGTLVTVSS VL: DVQMTQSPSSLSASVGDRVTITCRASQDIGNYLSWYQQKPGKAPKLLIYGAIKLAVGVPSRFSGSGSGTDFTLTISSLQPEDFATYYCLQYIQFPLTFGQGTKLEIKR | ~0.02 |
| h#11D5-T3 (antibody, human IgG1, kappa, V domains shown, Humanized IgG1/kappa) VH: EVQLQESGPGLVKPSQTLSLTCTVSGYSITSNYWGWIRKFPGNKMEWIGHITNSGNTTYNPSLKSRISISRDTSKNQFSLKLSSVTPADTAVYYCAKGAFDYWGQGTLVTVSS VL: DIQMTQSPSSLSASVGDRVTITCRASQDIGNYLSWFQQKVGKSPRRMIYGAIKLAVGVPSRFSGSRSGSDYTLTISSLQPEDFAIYYCLQYIQFPLTFGSGTKLEIKR | ~0.02 |
| h#11D5-T5 (antibody, human IgG1, kappa, Humanized IgG1/kappa) heavy: not shown light: DIQMTQSPSSLSASVGDRVTITCRASQDIGNYLSWFQQKPGKAPRRMIYGAIKLAVGVPSRFSGSGSGTDYTLTISSLQPEDFATYYCLQYIQFPLTFGGGTKVEIKRTVAAPSVFIFPPSDEQLKSGTASVVCLLNNFYPREAKVQWKVDNALQSGNSQESVTEQDSKDSTYSLSSTLTLSKADYEKHKVYACEVTHQGLSSPVTKSFNRGEC | ~0.01 |
| h#11D5-T6 (antibody, human IgG1, kappa, Humanized IgG1/kappa) heavy: not shown light: DIQMTQSPSSLSASVGDRVTITCRASQDIGNYLSWFQQKPGKAPRRMIYGAIKLAVGVPSRFSGSGSGTDYTLTISSLQPEDFATYYCLQYIQFPLTFGQGTKVEIKRTVAAPSVFIFPPSDEQLKSGTASVVCLLNNFYPREAKVQWKVDNALQSGNSQESVTEQDSKDSTYSLSSTLTLSKADYEKHKVYACEVTHQGLSSPVTKSFNRGEC | ~0.01 |
| h#11D5-T2 (antibody, human IgG1, kappa, V domains shown, Humanized IgG1/kappa) VH: EVQLQESGPGLVKPSQTLSLTCTVSGYSITSNYWGWIRQPPGMGLEWIGHITNSGNTTYNPSLKSRISISVDTSENQFSLKLSSVTPADTAVYYCAKGAFDYWGQGTLVTVSS VL: DIQMTQSPSSLSASVGDRVTITCRASQDIGNYLSWFQQKPGKAPRLMIYGAIKLAVGVPSRFSGSGSGTDYTLTISSLQPEDFATYYCLQYIQFPLTFGQGTKLEIKR | ~0.01 |
| h#11D5-T4 (antibody, human IgG1, kappa, V domains shown, Humanized IgG1/kappa) VH: QVQLQQWGAGLLKPSETLSLTCTVSGYSITSNYWGWIRQPPGKGLEWIGHITNSGNTTYNPSLKSRVTISRDTSKNQFSLKLSSVTAADTAVYYCAKGAFDYWGQGTLVTVSS VL: DIQMTQSPSSLSASVGDRVTITCRASQDIGNYLSWYQQKPGKAPKRLIYGAIKLAVGVPSRFSGSGSGTEFTLTISSLQPEDFATYYCLQYIQFPLTFGGGTKVEIKR | ~0.01 |
